Key:
[1] = target: C157S mutant of hDHHC3-Δ35 (hDHHS3-Δ35), C-terminal Twin-Strep tagged (human) (UniProt Q9NYG2); assay: SDS-PAGE; purified hDHHS3-Δ35 on SDS-PAGE; dimeric band at ≈50 kDa (Figure S5A)
[2] = target: C157S mutant of hDHHC3-Δ35 (hDHHS3-Δ35), C-terminal Twin-Strep tagged (human) (UniProt Q9NYG2); assay: cryo-EM 2D classification; hDHHS3-Δ35 in GDN micelles from SEC peak 1; 200 kV Talos Arctica; 2D class averages with RELION 3; no 3D reconstruction

oligomeric state (number of subunits) [1]: 2
stoichiometry N [2]: 2
Substance: C157S mutant of hDHHC3-Δ35 (hDHHS3-Δ35), C-terminal Twin-Strep tagged (from UniProt Q9NYG2-2 36-299) (enzyme)

— paper PMC9332573
